Data set [1] addresses HA-Rab10 (N-terminal HA-tagged Rab10 overexpressed in HEK293T cells; not phosphorylated / LRRK2 inhibitor A-treated lysate) (UniProt P61026).
Data set [2] concerns the target mouse Rab10 (endogenous, brain and kidney) (UniProt P61027).
In data set [3] the target is mouse Rab10 (endogenous, brain and kidney) (mouse) (UniProt P61027). Kind of data set: cell-based or functional assay.
Data set [4] addresses T1, HA-Rab8a phosphorylated at T72 (overexpressed with LRRK2 in HEK293T cells, DMSO-treated lysate) (UniProt P61006 1-204, phosphothreonine at Thr72 (numbered with reference to SEQ ID NO:124)).
T1 construct: mature; In cell lysate of HEK293T co-transfected with FLAG-LRRK2 or FLAG-LRRK2-R1441C; also called pT72-Rab8a; phospho-Rab8a; not shown: N-terminal HA (hemagglutinin) tag
T1 sequence (looked up): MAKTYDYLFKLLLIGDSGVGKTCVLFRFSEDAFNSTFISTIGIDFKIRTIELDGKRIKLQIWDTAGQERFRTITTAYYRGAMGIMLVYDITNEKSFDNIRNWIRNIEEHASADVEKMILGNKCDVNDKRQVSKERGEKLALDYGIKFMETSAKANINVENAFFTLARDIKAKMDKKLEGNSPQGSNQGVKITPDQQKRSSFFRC
Kind of data set: sandwich ELISA screening assay; OD ratio of DMSO lysate to LRRK2 inhibitor A lysate. Here is the method: (§1) 96-well ELISA plates were coated with 10 μg/ml anti-rabbit IgG (Millipore) overnight at 4° C. Plates were washed with TBST (Tris Buffered Saline with Tween 20), and blocked with 2% BSA. Hybridoma supernatants were added in different dilutions, and incubated at room temperature for 2 hours. After TBST wash, cell lysates were then added at different protein concentration (0.08 mg/ml or 0.8 mg/ml). […] HRP conjugated anti-HA antibody (1:5000, CST #2999) was used for detection. TMB substrate was added and developed. Absorbance (OD) was measured at 650 nm using a plate reader.
In general terms: In an ELISA, binding on a coated surface is turned into a signal by an enzyme label.

The target of data set [5] is T2, HA-Rab8a (N-terminal HA-tagged full-length Rab8a overexpressed in HEK293T cells); not phosphorylated / LRRK2 … (UniProt P61006 1-204).
T2 construct: mature; also called overexpressed Rab8a protein; not shown: N-terminal HA (hemagglutinin) tag
T2 sequence (looked up): T1 sequence (looked up)
As to the method:
as §1

The target in data set [6] is T3, endogenously expressed human Rab10 protein (total Rab10, A549 cell lysates) (human, UniProt P61026 1-200).
T3 construct: A549 is stated to be a human lung epithelial cell line
T3 sequence: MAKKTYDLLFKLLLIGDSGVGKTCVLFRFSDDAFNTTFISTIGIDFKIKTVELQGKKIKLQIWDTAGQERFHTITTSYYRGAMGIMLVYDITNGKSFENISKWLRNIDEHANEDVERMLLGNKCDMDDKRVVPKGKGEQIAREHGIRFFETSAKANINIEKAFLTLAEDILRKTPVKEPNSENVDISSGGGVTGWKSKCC
Kind of data set: sandwich ELISA with lysates of wild-type A549 cells, Rab10 KO A549 lysates as negative controls.

For data set [7], the target named is T4, recombinant Rab10 protein (Abnova, H00010890-P01) (UniProt P61026 1-200).
T4 construct: Bought
T4 sequence (looked up): T3 sequence
Kind of data set: sandwich ELISA with recombinant Rab proteins; same screening and selection strategy used for subclone supernatants.

For data set [8], the target named is T5, HA-Rab10 (N-terminal HA-tagged Rab10 overexpressed in HEK293T cells); not phosphorylated / LRRK2 inhibitor … (UniProt P61026 1-200).
T5 construct: mature; also called overexpressed Rab10 protein; not shown: N-terminal HA (hemagglutinin) tag
T5 sequence (looked up): T3 sequence
Kind of data set: sandwich ELISA with cell lysates; same screening and selection strategy used for subclone supernatants.

The target of data set [9] is endogenous phosphorylated human Rab8a protein (pT72-Rab8a) (human) (UniProt P61006). The data set can be described thus: western blot, human PBMC; band intensity normalized to actin; mean ± SEM.
For data set [10], the target named is T1, HA-Rab8a phosphorylated at T72 ….

Take LRRK2 variant G2385R: the “phosphorylation of Rab10 (pT73-Rab10 western blot signal normalized to total Rab10, against wild-type LRRK2)” value in data set [1] is on record as “demonstrated significantly increased phosphorylation levels of Rab10”. Take “mouse LRRK2 (endogenous; absent in LRRK2 knockout mice, Jackson Lab #016121)”: in [2], the “reduction of pRab10 level in LRRK2 KO mouse kidney (western blot, normalized to actin)” value is listed as “more than 90% reduction of pRab10 level” and the “reduction of pT73-Rab10 level in LRRK2 KO mouse brain (western blot, normalized to actin)” value was 30-40% reduction for pT73-Rab10 level. Turning to LRRK2 variant Y1699C, the “phosphorylation of Rab10 (pT73-Rab10 western blot signal normalized to total Rab10, against wild-type LRRK2)” value in data set [1] is “demonstrated significantly increased phosphorylation levels of Rab10”.

As to LRRK2 variant R1441G, the “phosphorylation of Rab10 (pT73-Rab10 western blot signal normalized to total Rab10, against wild-type LRRK2)” value in data set [1] is listed as “demonstrated significantly increased phosphorylation levels of Rab10”.

For the molecule “G2019S-LRRK2 (BAC transgene in G2019S-Tg mice, Jackson Laboratories #018785)”, the increase in pT73-Rab10 level in brain and kidney of G2019S transgenic mice (western blot, normalized to actin) in data set [3] was in the range of 20 to 30%. LRRK2 variant I2020T: the “phosphorylation of Rab10 (pT73-Rab10 western blot signal normalized to total Rab10, against wild-type LRRK2)” value in [1] is “demonstrated significantly increased phosphorylation levels of Rab10”. For “LRRK2 variant G2019S (HEK293T expression)”, in [1], the “phosphorylation of Rab10 (pT73-Rab10 western blot signal normalized to total Rab10, against wild-type LRRK2)” value is “demonstrated significantly increased phosphorylation levels of Rab10”.

B1: anti-pT72-Rab8a monoclonal antibody clone 170-1 (antibody, V domains shown)
VH: QSLEESGGDLVKPEGSPTLTCTASGFSFSSSYWICWVRQAPGKGLEWIACIYGGSSGTIYYASWAKGRFTISKTSSTTVTLQMTSLTAADTATYFCARRAAGGYGGRLDLWGQGTLVTVSS
VL: AQVMTQTPASVSAAVGGTVTINCQSSESVLNNNYLAWYQQKSGQPPKLLIWTASSLASGVPSRFSGSGSGTQFTLTISDVQCDDAATYYCAGGYYIGSDIFAFGGGTEVVVR
notes: Rabbit monoclonal; also called anti-phospho Rab8a clone 170-1
For the molecule B1, in [4], the “Ratio (DMSO/LRRK2 inhibitor A)” value is 6.03. Further, the “OD A650 (LRRK2 inhibitor A)” value in data set [5] came out at 0.173 OD A650.

B2: anti-total Rab10 monoclonal antibody Clone 10-3 (antibody, V domains shown)
VH: QSVEESGGRLVTPGTPLTLTCTASGFSLSSYYMNWVRQAPGKGLEWIGFISSGGRTYYANWAKGRFTISKTSTTVDLKITSPTTEDMATYFCARAIYSSGNSAMAIWGPGTLVTVSL
VL: AQVLTQTPSSVSAAVGGTVTISCQASQSVYDNSNLAWYQQKPGQPPELLIYYTSTLASGVPSRFSGSGSGTQFTLTISGVQCDDAAIYYCLGAFTCSSGDCNVFGGGTEVVVK
notes: Rabbit monoclonal from rabbit E8473 (Peptide A immunization); hybridoma supernatant; also called anti-total Rab10 clone 10-3
Consider B2, for which the binding result in data set [6], in [7] and in data set [8] was “binds” throughout.

B3: anti-pT72-Rab8a monoclonal antibody clone 24-3 (antibody, V domains shown)
VH: QSVEESGGRLVTPGTPLTLTCTVSGFSLSSYYITWVRQAPGKGREWLGIMNAGTTVHYANWVKGRFAISKTSTTVDLKITSPTTEDTATYFCARARNSVWMDIWGPGTLVTVSL
VL: AAVLTQTPSPVSGAVGGSVTVNCQSDKSVYRDNLAWYQQKPGQPPKLLIYKASTLASGVPSRFRGSGAGTQFTLTISDVQCDDAATYFCAGGYSSDSDTAFGGGTEVVVK
notes: Rabbit monoclonal; also called anti-phospho Rab8a clone 24-3
Consider B3, for which, in data set [4], the “Ratio (DMSO/LRRK2 inhibitor A)” value worked out at 5.19. The “OD A650 (LRRK2 inhibitor A)” value in data set [5] turned out to be 0.286 OD A650.

B4: anti-pT72-Rab8a monoclonal antibody clone 20 (antibody, V domains shown)
VH: QSVEESGGRLVTPGTPLTLTCTVSGFSLSSYAMGWVRQAPGEGLEYFGIINTGGSAYYTNWAKGRFTISRTSTTVHLKITSPTTEDTATYFCARIAGDTRYYGMDPWGPGTLVTVSS
VL: AAVLTQTPSPVSAAVGGTVSISCQSSKSVRNNNYLAWYQQKPGQPPKLLIYGASTLASGVPSRFKGSGSGTQFTLTISDVQCDDAATYYCAGGYDGGSDDAFGGGTEVVVK
notes: Rabbit monoclonal; also called anti-phospho Rab8a clone 20; anti-phosphorylated T72-Rab8a monoclonal antibody (clone 20)
With B4, in [4], the Ratio (DMSO/LRRK2 inhibitor A) worked out at 8.35. In addition, in [5], the “OD A650 (LRRK2 inhibitor A)” value is 0.099 OD A650. For the same molecule, in data set [9], the Ratio of DMSO/LRRK2 inhibitor A is 3.5. In addition, the OD A650 (DMSO) in data set [10] is 0.827 OD A650.
